The target in the data set is IhfAB (integration host factor) (UniProt P0A6X7+P0A6Y1). Nature of the data set: DNase I footprinting. As to conditions: 25 mM Tris-HCl pH 7.5, 50 mM KCl, 6.25 mM MgCl2, 10% glycerol, 1 mM DTT, 30 min room temperature; then 2.5 mM CaCl2 and 5 mM MgCl2 added for DNase I (1 min).
Chain of UniProt P0A6X7 (P0A6X7 whole entry, chain 1 of 2): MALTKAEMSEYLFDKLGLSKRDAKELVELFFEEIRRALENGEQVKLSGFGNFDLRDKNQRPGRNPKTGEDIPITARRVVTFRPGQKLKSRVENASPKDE
Chain of UniProt P0A6X7 (P0A6Y1 whole entry, chain 2 of 2): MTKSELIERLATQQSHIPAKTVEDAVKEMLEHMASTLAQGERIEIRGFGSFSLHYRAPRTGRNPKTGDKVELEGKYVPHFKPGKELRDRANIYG

In the case of “TCTGGTTTGGTTTTGTTTTGCGGGTTAAAAGATCGTTTAAATCAATATTTACAACATAAAAAACTAAATTTAACTTATTGCGTGAAGAGTATTTCCGGGCCGGAAGCATATATCCAGGGGCCCGACAGAAGGGGGAAACAT (double strand) [papB promoter region (141 bp PCR product)]”, the binding result is listed as “binds”.

Source of the values: publication PMC3485042.
